Laboratory results: patent US20060067886A1, “Gastrin receptor-avid peptide conjugates” (priority 1997, published 2006)

Assay: Biodistribution of radiometal-DOTA-BBN conjugates in CF1 normal mice
Conditions: 1 hour post-injection
In the case of `CSCC[C@H](NC(=O)[C@H](CC(C)C)NC(=O)[C@H](Cc1c[nH]cn1)NC(=O)CNC(=O)[C@@H](NC(=O)[C@H](C)NC(=O)[C@H](Cc1c[nH]c2ccccc12)NC(=O)[C@H](CCC(N)=O)NC(=O)CCCCNC(=O)CN1CCN(CC(=O)O)CCN(CC(=O)O)CCN(CC(=O)O)CC1)C(C)C)C(N)=O` [177Lu-DOTA-5-Ava-BBN[7-14]NH2] [metal not drawn], the “Avg % ID, Blood” value is reported as 0.35 ± 0.31 % ID, the “Avg % ID, Carcass” value is reported as 2.77 ± 0.75 % ID and the “Avg % ID, Heart” value is reported as 0.04 ± 0.05 % ID. For the same compound, the “Avg % ID, Kidney” value was 0.69 ± 0.33 % ID, the “Avg % ID, L. Intestine” value was 3.52 ± 1.37 % ID and the “Avg % ID, Liver” value was 0.14 ± 0.06 % ID. For the same compound, the “Avg % ID, Lung” value was 0.08 ± 0.15 % ID, the “Avg % ID, Muscle” value was 0.09 ± 0.12 % ID and the “Avg % ID, Pancreas” value was 3.78 ± 1.09 % ID. The “Avg % ID, S. Intestine” value was 3.80 ± 1.87 % ID, the “Avg % ID, Spleen” value was 0.18 ± 0.12 % ID and the “Avg % ID, Stomach” value was 0.73 ± 1.33 % ID. For the same compound, the “Avg % ID/gm, Blood” value was 0.22 ± 0.19 % ID/gm, the “Avg % ID/gm, Heart” value was 0.34 ± 0.35 % ID/gm and the “Avg % ID/gm, Kidney” value was 2.03 ± 1.02 % ID/gm. The “Avg % ID/gm, L. Intestine” value was 3.78 ± 1.23 % ID/gm, the “Avg % ID/gm, Liver” value was 0.09 ± 0.04 % ID/gm and the “Avg % ID/gm, Lung” value was 0.47 ± 0.84 % ID/gm. The “Avg % ID/gm, Muscle” value was 0.67 ± 0.90 % ID/gm, the “Avg % ID/gm, Pancreas” value was 16.41 ± 1.38 % ID/gm and the “Avg % ID/gm, S. Intestine” value was 2.55 ± 1.31 % ID/gm. For the same compound, the “Avg % ID/gm, Spleen” value was 1.26 ± 0.69 % ID/gm and the “Avg % ID/gm, Stomach” value was 1.48 ± 2.25 % ID/gm. For `CSCC[C@H](NC(=O)[C@H](CC(C)C)NC(=O)[C@H](Cc1c[nH]cn1)NC(=O)CNC(=O)[C@@H](NC(=O)[C@H](C)NC(=O)[C@H](Cc1c[nH]c2ccccc12)NC(=O)[C@H](CCC(N)=O)NC(=O)CCCCCCCCCCNC(=O)CN1CCN(CC(=O)O)CCN(CC(=O)O)CCN(CC(=O)O)CC1)C(C)C)C(N)=O` [177Lu-DOTA-11-Aun-BBN[7-14]NH2] [metal not drawn], the “Avg % ID, Blood” value was 0.47 ± 0.54 % ID, the “Avg % ID, Carcass” value was 6.69 ± 2.48 % ID and the “Avg % ID, Heart” value was 0.19 ± 0.29 % ID. For the same compound, the “Avg % ID, Kidney” value was 1.76 ± 0.25 % ID, the “Avg % ID, L. Intestine” value was 5.03 ± 0.46 % ID and the “Avg % ID, Liver” value was 2.26 ± 0.46 % ID. For the same compound, the “Avg % ID, Lung” value was 0.17 ± 0.22 % ID, the “Avg % ID, Muscle” value was 0.11 ± 0.18 % ID and the “Avg % ID, Pancreas” value was 6.89 ± 1.20 % ID. The “Avg % ID, S. Intestine” value was 17.10 ± 3.60 % ID, the “Avg % ID, Spleen” value was 0.24 ± 0.24 % ID and the “Avg % ID, Stomach” value was 0.64 ± 0.35 % ID. The “Avg % ID/gm, Blood” value was 0.78 ± 1.10 % ID/gm, the “Avg % ID/gm, Heart” value was 1.56 ± 2.40 % ID/gm and the “Avg % ID/gm, Kidney” value was 4.97 ± 0.61 % ID/gm. For the same compound, the “Avg % ID/gm, L. Intestine” value was 6.31 ± 0.86 % ID/gm, the “Avg % ID/gm, Liver” value was 1.65 ± 0.29 % ID/gm and the “Avg % ID/gm, Lung” value was 0.73 ± 0.81 % ID/gm. For the same compound, the “Avg % ID/gm, Muscle” value was 0.75 ± 1.12 % ID/gm, the “Avg % ID/gm, Pancreas” value was 35.48 ± 2.39 % ID/gm and the “Avg % ID/gm, S. Intestine” value was 12.58 ± 1.73 % ID/gm. The “Avg % ID/gm, Spleen” value was 1.78 ± 1.87 % ID/gm and the “Avg % ID/gm, Stomach” value was 1.82 ± 1.12 % ID/gm. In the case of `CSCC[C@H](NC(=O)[C@H](CC(C)C)NC(=O)[C@H](Cc1cnc[nH]1)NC(=O)CNC(=O)[C@@H](NC(=O)[C@H](C)NC(=O)[C@H](Cc1c[nH]c2ccccc12)NC(=O)[C@H](CCC(N)=O)NC(=O)CCNC(=O)CN1CCN(CC(=O)O)CCN(CC(=O)O)CCN(CC(=O)O)CC1)C(C)C)C(N)=O` [177Lu-DOTA-β-Ala-BBN[7-14]NH2] [metal not drawn], the “Avg % ID, Blood” value is reported as 0.24 ± 0.25 % ID, the “Avg % ID, Carcass” value is reported as 2.73 ± 1.08 % ID and the “Avg % ID, Heart” value is reported as 0.05 ± 0.08 % ID. For the same compound, the “Avg % ID, Kidney” value was 0.63 ± 0.14 % ID, the “Avg % ID, L. Intestine” value was 0.36 ± 0.17 % ID and the “Avg % ID, Liver” value was 0.21 ± 0.09 % ID. For the same compound, the “Avg % ID, Lung” value was 0.04 ± 0.06 % ID, the “Avg % ID, Muscle” value was 0.11 ± 0.18 % ID and the “Avg % ID, Pancreas” value was 0.32 ± 0.07 % ID. The “Avg % ID, S. Intestine” value was 0.64 ± 0.20 % ID, the “Avg % ID, Spleen” value was 0.05 ± 0.04 % ID and the “Avg % ID, Stomach” value was 0.13 ± 0.09 % ID. The “Avg % ID/gm, Blood” value was 0.16 ± 0.17 % ID/gm, the “Avg % ID/gm, Heart” value was 0.43 ± 0.70 % ID/gm and the “Avg % ID/gm, Kidney” value was 1.88 ± 0.37 % ID/gm. The “Avg % ID/gm, L. Intestine” value was 0.45 ± 0.19 % ID/gm, the “Avg % ID/gm, Liver” value was 0.15 ± 0.06 % ID/gm and the “Avg % ID/gm, Lung” value was 0.23 ± 0.33 % ID/gm. For the same compound, the “Avg % ID/gm, Muscle” value was 0.94 ± 1.54 % ID/gm, the “Avg % ID/gm, Pancreas” value was 1.44 ± 0.26 % ID/gm and the “Avg % ID/gm, S. Intestine” value was 0.49 ± 0.10 % ID/gm. The “Avg % ID/gm, Spleen” value was 0.31 ± 0.31 % ID/gm and the “Avg % ID/gm, Stomach” value was 0.34 ± 0.18 % ID/gm.

Same assay, conditions: CF-1, mouse, in vivo, iv, total radioactivity, Avg % ID/gm, Stomach, 1 hour post-injection
In the case of `CSCC[C@H](NC(=O)[C@H](CC(C)C)NC(=O)[C@H](Cc1cnc[nH]1)NC(=O)CNC(=O)[C@@H](NC(=O)[C@H](C)NC(=O)[C@H](Cc1c[nH]c2ccccc12)NC(=O)[C@H](CCC(N)=O)NC(=O)CCCCCCCNC(=O)CN1CCN(CC(=O)O)CCN(CC(=O)O)CCN(CC(=O)O)CC1)C(C)C)C(N)=O` [149Pm-DOTA-8-Aoc-BBN[7-14]NH2], the tissue uptake at 1 h is reported as 1.16 ± 0.59 %ID/g.
